Data taken from article PMC11849937, “Atractylenolide I inhibits angiogenesis and reverses sunitinib resistance in clear cell renal cell carcinoma through ATP6V0D2-mediated autophagic degradation of EPAS1/HIF2α” (Autophagy, 2024).

Molecular target: T1, His-VPS41 (recombinant, bacterial) (UniProt P49754 1-854)
T1 construct: VPS41; The only His-VPS41 plasmid that the methods name is in the vector pGMLV; source: BL21 (Rosetta) bacterial cells, purified (His beads)
T1 sequence (looked up): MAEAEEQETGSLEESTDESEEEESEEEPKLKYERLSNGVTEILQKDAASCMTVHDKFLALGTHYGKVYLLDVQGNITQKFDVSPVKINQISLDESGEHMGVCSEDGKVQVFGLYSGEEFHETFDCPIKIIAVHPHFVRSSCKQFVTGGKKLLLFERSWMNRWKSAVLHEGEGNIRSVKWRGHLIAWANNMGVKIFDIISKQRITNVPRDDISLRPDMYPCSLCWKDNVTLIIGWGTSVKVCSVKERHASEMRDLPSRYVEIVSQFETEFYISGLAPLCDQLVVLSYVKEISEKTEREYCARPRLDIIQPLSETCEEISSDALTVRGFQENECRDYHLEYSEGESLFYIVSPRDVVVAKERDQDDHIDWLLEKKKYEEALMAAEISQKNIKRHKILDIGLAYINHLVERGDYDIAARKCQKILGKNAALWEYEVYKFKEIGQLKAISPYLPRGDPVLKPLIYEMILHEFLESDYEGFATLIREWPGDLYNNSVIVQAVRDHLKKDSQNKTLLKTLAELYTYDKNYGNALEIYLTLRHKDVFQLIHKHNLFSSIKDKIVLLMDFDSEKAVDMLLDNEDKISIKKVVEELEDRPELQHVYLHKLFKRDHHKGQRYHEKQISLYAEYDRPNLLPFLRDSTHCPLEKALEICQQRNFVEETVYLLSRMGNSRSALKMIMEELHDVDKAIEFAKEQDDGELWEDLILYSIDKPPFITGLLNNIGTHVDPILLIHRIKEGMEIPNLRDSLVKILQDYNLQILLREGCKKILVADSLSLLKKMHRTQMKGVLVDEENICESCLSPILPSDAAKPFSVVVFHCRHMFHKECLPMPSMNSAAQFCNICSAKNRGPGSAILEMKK
Test: pull-down; GST-tagged protein (2.5 ug) immobilised on glutathione-Sepharose beads, incubated with His-RAB7, His-VPS41 or both in affinity-isolation buffer with PMSF; western blot
Details: both partners purified

B1: GST-tagged ATP6V0D2 (natural protein)
chain: not shown
notes: ATP6V0D2, ATPase H+ transporting V0 subunit d2; Construct bought from Tsingke Biotechnology; also called GST-ATP6V0D2; source: BL21 (Rosetta) bacterial cells, purified (glutathione-Sepharose beads)
B1: binds.
